Legend:
[1] = biological target: T1, human NT5E-Biotin (NT5E, GenbankID: NP_002517.1, position: 1-552) (human, UniProt P21589 27-552, biotin (site not stated)); assay: ELISA on SA-captured NT5E-Biotin; antibody 0.333 ug/mL; replicate 1
T1 construct: range 1-552; Biotinylated antigen captured on streptavidin-coated plates; also called HNT5E-Biotin; human NTSE-Biotin
T1 sequence (looked up): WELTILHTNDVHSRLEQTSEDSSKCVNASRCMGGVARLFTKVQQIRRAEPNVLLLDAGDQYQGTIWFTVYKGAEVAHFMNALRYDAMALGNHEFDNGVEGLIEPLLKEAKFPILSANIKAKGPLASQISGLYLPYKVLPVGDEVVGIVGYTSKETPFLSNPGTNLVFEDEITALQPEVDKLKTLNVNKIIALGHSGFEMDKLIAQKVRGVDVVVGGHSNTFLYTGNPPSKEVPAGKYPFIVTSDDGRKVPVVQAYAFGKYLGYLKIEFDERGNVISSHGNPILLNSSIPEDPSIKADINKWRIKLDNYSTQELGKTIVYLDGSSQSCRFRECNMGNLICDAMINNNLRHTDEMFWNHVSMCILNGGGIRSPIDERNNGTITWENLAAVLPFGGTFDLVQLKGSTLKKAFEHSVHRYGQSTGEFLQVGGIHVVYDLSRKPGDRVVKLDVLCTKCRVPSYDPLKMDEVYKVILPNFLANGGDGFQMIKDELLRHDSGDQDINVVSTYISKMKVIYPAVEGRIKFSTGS
Protocol: (§1) Experimental steps: a microplate was coated with streptavidin at 2 μg/mL, and then the microplate was incubated at 4° C. for 12 hours. The antigen-coated microplate was rinsed for once with PBST after incubation, and then blocked with a PBST solution containing 1% BSA as a microplate blocking solution for 2 hours. After blocking, the microplate was washed 3 times with PBST. […] The antibody serially diluted with the PBST solution was added to the wells of the microplate. The microplate containing the test antibodies was incubated at 37° C. for 30 minutes, and then washed 3 times with PBST. After the plate was washed, the secondary antibody working solution of HRP-labeled goat anti-human IgG (H+L) (Jackson, Cat. No. 109-035-088) diluted in a ratio of 1:5000 or HRP-labeled goat anti-mouse IgG (H+L) (Jackson, Cat. No. 115-035-062) diluted in a ratio of 1:5000 was added, and then the plate was incubated at 37° C. for 30 minutes. After incubation, the plate was washed 4 times with PBST, TMB (Neogen, 308177) was added in the dark for color development for 5 min, and then a stop solution was added to terminate chromogenic reaction. The microplate was put into a microplate reader immediately, and the OD value of each well in the microplate was read at the light wavelength of 450 nm. The data were analyzed by SoftMax Pro 6.2.1.

[2] = biological target: T1, human NT5E-Biotin (NT5E, GenbankID: …); assay: ELISA on SA-captured NT5E-Biotin; antibody 0.333 ug/mL diluted 1:3; replicate 1
Protocol: as §1

[3] = biological target: T1, human NT5E-Biotin (NT5E, GenbankID: …); assay: ELISA on SA-captured NT5E-Biotin; antibody 0.333 ug/mL diluted 1:729; replicate 2
Protocol: as §1

[4] = biological target: T1, human NT5E-Biotin (NT5E, GenbankID: …); assay: ELISA on SA-captured NT5E-Biotin; antibody 0.333 ug/mL diluted 1:3; replicate 2
Protocol: as §1

[5] = biological target: T1, human NT5E-Biotin (NT5E, GenbankID: …); assay: ELISA on SA-captured NT5E-Biotin; antibody 0 (blank); replicate 2
Protocol: as §1

[6] = biological target: T1, human NT5E-Biotin (NT5E, GenbankID: …); assay: ELISA on SA-captured NT5E-Biotin; antibody 0.333 ug/mL diluted 1:9; replicate 1
Protocol: as §1

[7] = biological target: T1, human NT5E-Biotin (NT5E, GenbankID: …); assay: ELISA on SA-captured NT5E-Biotin; antibody 0.333 ug/mL diluted 1:243; replicate 1
Protocol: as §1

[8] = biological target: T1, human NT5E-Biotin (NT5E, GenbankID: …); assay: ELISA on SA-captured NT5E-Biotin; antibody 0.333 ug/mL diluted 1:81; replicate 2
Protocol: as §1

[9] = biological target: T1, human NT5E-Biotin (NT5E, GenbankID: …); assay: ELISA on SA-captured NT5E-Biotin; antibody 0.333 ug/mL diluted 1:243; replicate 2
Protocol: as §1

[10] = biological target: T1, human NT5E-Biotin (NT5E, GenbankID: …); assay: ELISA on SA-captured NT5E-Biotin; antibody 0.333 ug/mL diluted 1:729; replicate 1
Protocol: as §1

[11] = biological target: T1, human NT5E-Biotin (NT5E, GenbankID: …); assay: ELISA on SA-captured NT5E-Biotin; antibody 0.333 ug/mL diluted 1:27; replicate 2
Protocol: as §1

[12] = biological target: T1, human NT5E-Biotin (NT5E, GenbankID: …); assay: ELISA on SA-captured NT5E-Biotin; antibody 0.333 ug/mL diluted 1:81; replicate 1
Protocol: as §1

[13] = biological target: T1, human NT5E-Biotin (NT5E, GenbankID: …); assay: ELISA on SA-captured NT5E-Biotin; antibody 0 (blank); replicate 1
Protocol: as §1

[14] = biological target: T1, human NT5E-Biotin (NT5E, GenbankID: …); assay: ELISA on SA-captured NT5E-Biotin; antibody 0.333 ug/mL; replicate 2
Protocol: as §1

- OD 450 nm [1]: 2.71 OD450
- OD 450 nm [2]: 2.74 OD450
- OD 450 nm [3]: 0.47 OD450
- OD 450 nm [4]: 2.76 OD450
- OD 450 nm [5]: 0.062 OD450
- OD 450 nm [6]: 2.57 OD450
- OD 450 nm [7]: 1 OD450
- OD 450 nm [8]: 1.77 OD450
- OD 450 nm [9]: 1 OD450
- OD 450 nm [10]: 0.446 OD450
- OD 450 nm [11]: 2.36 OD450
- OD 450 nm [12]: 1.69 OD450
- OD 450 nm [13]: 0.06 OD450
- OD 450 nm [14]: 2.74 OD450
B1: murine anti-CD73 monoclonal antibody 19F3 (antibody, V domains shown)
VH: EVQLQQSGPELVKPGASMRMSCKASGYSFTGYTMNWVKQSHGKNLEWIGLINPYNAGTSYNQKFKGKATLTVDKSSSTAYMELLSLTSEDSAVYYCARSEYRYGGDYFDYWGQGTTLTVSS
VL: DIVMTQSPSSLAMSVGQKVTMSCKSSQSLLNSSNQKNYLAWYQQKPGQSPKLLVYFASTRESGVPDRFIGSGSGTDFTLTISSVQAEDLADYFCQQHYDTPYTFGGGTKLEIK
notes: Mouse hybridoma antibody purified on protein A; also called murine antibody 19F3; antibody secreted by hybridoma cell line LT014 (CD73-19F3)

Reference: patent publication US20230159655A1 (AKESO BIOPHARMA, published 2023)
